Experiment: yeast display, Sf9 membrane polyspecificity reagent, FACS + sequencing; frameworks hold sequencing errors
How it was run: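 Galactose-induced (36–48 hours) yeast carrying a synthetic nanobody display library were exposed to 10% biotinylated, detergent-solubilized Sf9 membrane reagent at 4 °C for 1 hour. FACS followed streptavidin microbead enrichment, using low and high (top ~1%) gates for expression (anti-HA) and reagent binding (streptavidin). Colony PCR, MiSeq 2 × 250 sequencing and CDR-length filtering followed. Labels for polyreactivity reflect the gate of origin.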
For “QVQLVESGGGLVQAGGSLRLSCAASGSTFGRYTMGWYRQAPGKEREFVAAIRWSGGNTYYADSVKGRFTISRDNAKNTVYLQMNSLKPEDTAVYYCNRVYSTIGDYWGQGTQVTVSS”, the “polyreactivity (PSR sort gate)” value was “low polyreactivity”.
In the case of “QVQLVESGGGLVQAGGSLRLSCAASGSTFGRYVMGWYRQAPGKERELVAAISYSGGRTYYADSVKGRFTISRDNAKNTVYLQMNSLKPEDTAVYYCAARVRTVRNTYYSWGQGTQVTVSS”, the “polyreactivity (PSR sort gate)” value is reported as “high polyreactivity”.
With “QVQLVESGGGLVQAGGSLRLSCAASGSTFGSNAMGWYRQAPGKERELVAAISSIGGSTYYADSVKGRFTISRDNAKNTVYLQMNSLKTEDTAVYYCAAKYYGRYYRYLGSSFDYWGQGTQVTVSS” the “polyreactivity (PSR sort gate)” value was “high polyreactivity”.
With “QVQLVESGGGLVQAGGSLRLSCAASGSTFGSNAMGWYRQAPGKERELVAAITYSGGRTYYADSVKGRFTISRDNAKNTVYLQMNSLKPEDTAVYYCAATFGFFYYQYDYWGQGTQVTVSS” the “polyreactivity (PSR sort gate)” value was “low polyreactivity”.
With “QVQLVESGGGLVQAGGSLRLSCAASGSTFGSNDLGWYRQAPGQERELVAAITWSGGSTFYADSVKGRFTISRDNAKNTVYLQMNSLKPEDTALYSCAVSTEVNRYHAKYDYRGQGTQVTVSS” the “polyreactivity (PSR sort gate)” value was “low polyreactivity”.
With “QVQLVESGGGLVQAGGSLRLSCAASGSTFGSYAMGWYRQAPGKERELVAAISRSGTSTYYADSVKGRFTISRDNAKNTVYLQMNSLKPEETAVYYCAAKFVTSGGLEGYWGQGTQVTVSS” the “polyreactivity (PSR sort gate)” value was “high polyreactivity”.
With “QVQLVESGGGLVQAGGSLRLSCAASGSTFGSYAMGWYRQAPGKERELVADISSRGASTYYADSVKGRFTISRDNAKNTVYLQMNSLKPEDTAVYYCARDVYIWYGYGYFPEYEYWGQGTQVTVSS” the “polyreactivity (PSR sort gate)” value was “low polyreactivity”.
With “QVQLVESGGGLVQAGGSLRLSCAASGSTFGSYTMGWYRQAPGKERELVAAISYSSGRTYYADSVKGRFTISRDNAKNTVYLQMNSLKPEDTAVYYCAAVSRGRGEYDYWGQGTQLTVSS” the “polyreactivity (PSR sort gate)” value was “high polyreactivity”.
For “QVQLVESGGGLVQAGGSLRLSCAASGSTFGTNAMGWYRQAPGKERELVAAISTGGSTYYADSVKGRFTISRDNAKNTVYLQMNSLKPEDNAVYYCAALADYVRRASDYWGQGTQVTVSS”, the “polyreactivity (PSR sort gate)” value was “low polyreactivity”.
With “QVQLVESGGGLVQAGGSLRLSCAASGSTFGTYAMGWNRQATWKERELVAAITYSTGNTYYADSVKGRFTISRDNAKNNVYLQMNSLKPEDTAVYYCALEFGYYYFWMDYWGQGTQVTVSS” the “polyreactivity (PSR sort gate)” value was “high polyreactivity”.
With “QVQLVESGGGLVQAGGSLRLSCAASGSTFGTYAMGWYRKAPGKERELVAAISTGGSTYYADSVKGRFTISRDNAKNTVYLQMNSLKPEDTAVYYCAALADYVRRASEYWGQGTQVTVSS” the “polyreactivity (PSR sort gate)” value was “high polyreactivity”.
For “QVQLVESGGGLVQAGGSLRLSCAASGSTFGTYAMGWYRQATGKERELVAAISRGVSTYYADSVKGRFTISRDKAKNTVYLEMNSLKPEDTAVYYCAADPFWQTVYVYYTYSGTSYYWGQGTQVTVSS”, the “polyreactivity (PSR sort gate)” value was “low polyreactivity”.
For “QVQLVESGGGLVQAGGSLRLSCAASGSTFGVNAMGWYRPAPGKERELVAAITYSGGSTYYADSVKGRFTISRDNAKNTVYLQMNSLKPEDTAVYYCATTWYFVASWYVAIYDYWGQGTQVTVSS”, the “polyreactivity (PSR sort gate)” value was “low polyreactivity”.
For “QVQLVESGGGLVQAGGSLRLSCAASGSTFGVNAMGWYRQAPGKERELVAAIRWSDGSTYYADSVKGRFTISRDNAKNTVYLQMNSLKPEDTAVYYCNTDLTVYFPVEYWGQGTQVTVSS”, the “polyreactivity (PSR sort gate)” value was “low polyreactivity”.
With “QVQLVESGGGLVQAGGSLRLSCAASGSTFGVNAMGWYRQAPGKERELVAAISSSGSSTYADSVKGRFTISRDYAKNTVYLQMNSLKPEYTGVYYCNKTTLLTVEYDYWGQGPQVTVSS” the “polyreactivity (PSR sort gate)” value was “low polyreactivity”.
With “QVQLVESGGGLVQAGGSLRLSCAASGSTFGVNAMGWYRQAPGKERELVATISRGTSTNYADSVKGRFTISRDNAKNTVYLQMHSLKPEDTAVYYCAKRVFYPGAYRYYYWGQGTQVTVSS” the “polyreactivity (PSR sort gate)” value was “high polyreactivity”.
With “QVQLVESGGGLVQAGGSLRLSCAASGSTFGVNVMGWYRQAPGKERELVDAISRSGGRTYYADSVKGRFTISRDNAKNTVYLQMNSLKPEDTAVYYCNTRGYDYWGQGTQVTVSS” the “polyreactivity (PSR sort gate)” value was “high polyreactivity”.
In the case of “QVQLVESGGGLVQAGGSLRLSCAASGSTFGVYAMGWYRQAPGKERELVAAISESGGNTYYADSVKGRFTISRDNAKNTVYLQLNSLKPEDPAVYYCNTDVVVVHYIQAYYWGQGTQVTVSS”, the “polyreactivity (PSR sort gate)” value is reported as “low polyreactivity”.
For “QVQLVESGGGLVQAGGSLRLSCAASGSTFGVYAMGWYRQAPGKERELVAAISKRGGSTYYADSVKGRFTISRDNAKNTVYLQMNSLKPEDTAVYYCAAGARGLYDYWGQGTQVTVSS”, the “polyreactivity (PSR sort gate)” value was “high polyreactivity”.
In the case of “QVQLVESGGGLVQAGGSLRLSCAASGSTFGVYAMGWYRQAPGKERELVAAISSSTGSTYYADSVKGRFTISRDNAMNSVYLQMNSLKPEDTAVYYCDAAGYGKVLGDYWGQGTLVTVSS”, the “polyreactivity (PSR sort gate)” value is reported as “low polyreactivity”.
With “QVQLVESGGGLVQAGGSLRLSCAASGSTFGVYAMGWYRQAPGKERELVASISSRGRTKYADSVKGSFTISRDNAKNTVYLQMIRLKPEDTAFYYCAARIRYLGVRDNDNYYWGQGTQVTVSS” the “polyreactivity (PSR sort gate)” value was “low polyreactivity”.
In the case of “QVQLVESGGGLVQAGGSLRLSCAASGSTFGWNAMGWYRQAPGKERELVAAISSSGGITYYADSVKGRFTISRDNAKNTVYLQMNSLKPEDSAVYYCAAERDDDWVNYWGQGTQVTVSS”, the “polyreactivity (PSR sort gate)” value is reported as “low polyreactivity”.
With “QVQLVESGGGLVQAGGSLRLSCAASGSTFGWYAIGWNRQAPGKERELVAAINSDGSTYYADSVKGRFTISRDNAKNNVYLQMNSLKPEDPAVYYCATDDALYGYLYHNYGYWGEGTQVTVSS” the “polyreactivity (PSR sort gate)” value was “low polyreactivity”.
With “QVQLVESGGGLVQAGGSLRLSCAASGSTFGWYAMGGYRQAPGKERELVAAISASGGATYYADSVKGRFTISRDNAKNTVYLQMNSLKPEDTAVYYCAAVRYPNWYDYWGQGTQVTVSS” the “polyreactivity (PSR sort gate)” value was “high polyreactivity”.
In the case of “QVQLVESGGGLVQAGGSLRLSCAASGSTFGWYAMGWYRQAPGKEREFVAAIRGGGSSTYYADSVKGRFTISRDNAKNTVYFQMNSLKPEDTAVYYCAAVTSQLYGNRYYYWGQGTQVTVSS”, the “polyreactivity (PSR sort gate)” value is reported as “high polyreactivity”.
With “QVQLVESGGGLVQAGGSLRLSCAASGSTFGWYAMGWYRQAPGKERELVAAISNSGGSTYYADSVKGRFTISRDNAKNTVYLQMNSLKPEDTAVYYCATYHTTSYYQLVFDYWGQGTQVTVSS” the “polyreactivity (PSR sort gate)” value was “low polyreactivity”.
For “QVQLVESGGGLVQAGGSLRLSCAASGSTFGWYAMGWYRQAPGKERELVASISSGGSTNYADSVKGRFTISRDNAKNTVYLQMNSLKPEDTAVYYCAARGGYWWYRYGYWGQGTQVTVSS”, the “polyreactivity (PSR sort gate)” value was “high polyreactivity”.
With “QVQLVESGGGLVQAGGSLRLSCAASGSTFGWYTMGWYRQAPGKERELVAAMTSRGTRTSYADSVKGRFTISRDNAKNTVYLQMNSLKPEDTAVYYCAARVFRGLGEYYWGQGTQVTVSS” the “polyreactivity (PSR sort gate)” value was “high polyreactivity”.
With “QVQLVESGGGLVQAGGSLRLSCAASGSTFGYNAMGWYRQAPGKERELVAAINFRSDRTFYADSVKGRFTISRDNAKNTVYLQMNSLKPEDTAVYYCAAKPTTYYGNSDYWGQGTQVTVSS” the “polyreactivity (PSR sort gate)” value was “high polyreactivity”.
With “QVQLVESGGGLVQAGGSLRLSCAASGSTFGYNAMGWYRQAPGKERELVAAISYSGGSTSYADSVKGRFTISRDNAKNIVYLQMNSLKPEDTAVYYCARDSYSQYSSQALEGYGYWGQGTQVTVSS” the “polyreactivity (PSR sort gate)” value was “low polyreactivity”.
With “QVQLVESGGGLVQAGGSLRLSCAASGSTFGYNAMGWYRQAPGKERELVADITARGGSTYYADSVKGRFTISRANAKNTVYLQMNSLKPEVTAVYYCAARRKRFYYYAGYDYWGQGTQVTVSS” the “polyreactivity (PSR sort gate)” value was “high polyreactivity”.
With “QVQLVESGGGLVQAGGSLRLSCAASGSTFGYNAMGWYRQAPGKERELVARITSSGGSTYYADSVKGRFTISRDNAKNTVYLQMNSLKPEDTAVYYCAAGYLSGNYARYGYWGQGTQVTVSS” the “polyreactivity (PSR sort gate)” value was “high polyreactivity”.

— the nanobody polyreactivity screen of Harvey et al. (2022)
